From patent publication US20250263502A1 (published 2025)
Where a chain is given by its changes, count along the chain named.

T1: ectodomain of human CD98hc (human, UniProt P08195 105-529)
T1 chain: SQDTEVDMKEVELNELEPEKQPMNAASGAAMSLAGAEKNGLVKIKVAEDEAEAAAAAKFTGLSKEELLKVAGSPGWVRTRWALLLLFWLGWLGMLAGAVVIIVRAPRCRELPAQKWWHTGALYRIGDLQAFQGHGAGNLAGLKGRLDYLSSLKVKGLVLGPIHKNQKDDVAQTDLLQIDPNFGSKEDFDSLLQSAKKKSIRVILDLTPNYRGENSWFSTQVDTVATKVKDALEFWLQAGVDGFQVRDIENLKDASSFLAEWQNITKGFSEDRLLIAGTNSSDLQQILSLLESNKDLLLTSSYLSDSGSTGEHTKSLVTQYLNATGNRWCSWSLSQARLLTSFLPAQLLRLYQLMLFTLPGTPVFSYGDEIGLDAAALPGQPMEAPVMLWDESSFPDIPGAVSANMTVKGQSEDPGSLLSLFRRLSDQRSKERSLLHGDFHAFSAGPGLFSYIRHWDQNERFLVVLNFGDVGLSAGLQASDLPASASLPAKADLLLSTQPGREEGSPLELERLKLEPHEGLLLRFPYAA

B1: VNAR clone F1 fused N-terminally to human IgG1 Fc (VNAR-hFc) (Fc fusion)
chain: ARVDQTPQTITKEEGESLTINCVLRVHGRALASTSWYRKKSGSTREETISKGGRYVETVNSGSKSFSLRINDLTVEDSGTYRCNVYGLSSGDIEGVKKIDVYGDGTAVTVNA
notes: Bivalent VNAR-Fc from Expi293 cells; also called F1-hFc; not shown: human IgG1 Fc (hinge, CH2 and CH3) as encoded by vector pFUSE-hIgG1e3-Fc2
B2: F12 variant F12-E03 as VNAR-hFc fusion (Fc fusion)
chain: B1 chain with Y86N, I93Q
notes: not shown: human IgG1 Fc (hinge, CH2 and CH3) as encoded by vector pFUSE-hIgG1e3-Fc2
B3: F12 variant F12-B12 as VNAR-hFc fusion (Fc fusion)
chain: B1 chain with Y86N, I99L
notes: as for B2
B4: VNAR clone F12 fused N-terminally to human IgG1 Fc (VNAR-hFc) (Fc fusion)
chain: B1 chain with S90F
notes: Bivalent VNAR-Fc from Expi293 cells; also called F12-hFc; VNAR F12-hFc; not shown: human IgG1 Fc (hinge, CH2 and CH3) as encoded by vector pFUSE-hIgG1e3-Fc2
B5: F12 variant F12-G02 as VNAR-hFc fusion (Fc fusion)
chain: B1 chain with S89M, S90N, G91V
notes: as for B2
B6: F12 variant F12-C01 as VNAR-hFc fusion (Fc fusion)
chain: B1 chain with I93S
notes: as for B2
B7: F12 variant F12-H04 as VNAR-hFc fusion (Fc fusion)
chain: B1 chain with S89M, S90Q
notes: as for B2
B8: F12 variant F12-G04 as VNAR-hFc fusion (Fc fusion)
chain: B1 chain with Y86N
notes: as for B2
B9: F12 variant F12-A01 as VNAR-hFc fusion (Fc fusion)
chain: B1 chain with Y86N, I93K
notes: as for B2
B10: VNAR clone E12 fused N-terminally to human IgG1 Fc (VNAR-hFc) (Fc fusion)
chain: ARVDQTPQTITKEEGESLTINCVLRTQDPALASTSWYRKKSGSTREETISKGGRYVETVNSGSKSFSLRINDLTVEDSGTYRCNVYFLLAPTKTKLQGIDVYGDGTAVTVNA
notes: Bivalent VNAR-Fc from Expi293 cells; not shown: human IgG1 Fc (hinge, CH2 and CH3) as encoded by vector pFUSE-hIgG1e3-Fc2
B11: VNAR clone H7 fused N-terminally to human IgG1 Fc (VNAR-hFc) (Fc fusion)
chain: ARVDQTPQTITKEEGESLTINCVLRYNNPALASTSWYRKKSGSTREETISKGGRYVETVNSGSKSFSLRINDLTVEDSGTYRCNVYFFPSFLVDKLQSHDVYGDGTAVTVNA
notes: as for B10
B12: VNAR clone G3 fused N-terminally to human IgG1 Fc (VNAR-hFc) (Fc fusion)
chain: ARVDQTPQTITKETGESLTINCVLRDNNCALSTTYWYRKKSGSTNEENISKGGRYVETVNSGSKSFSLRINDLTVEDSGTYRCKVHFFPSFCNSTSIRSVDVYGGGTVVTVNA
notes: as for B10
B13: VNAR clone D1 fused N-terminally to human IgG1 Fc (VNAR-hFc) (Fc fusion)
chain: ARVDQTPQTITKEEGESLTINCVLRHNYSALASTSWYRKKSGSTREETISKGGRYVETVNSGSKSFSLRINDLTVEDSGTYRCNVYGISFIEEKIRYDFDVYGDGTAVTVNA
notes: Bivalent VNAR-Fc from Expi293 cells; also called D1-hFc; not shown: human IgG1 Fc (hinge, CH2 and CH3) as encoded by vector pFUSE-hIgG1e3-Fc2
B14: VNAR clone H6 fused N-terminally to human IgG1 Fc (VNAR-hFc) (Fc fusion)
chain: ARVDQTPQTITKEEGESLTINCVLRTHSNALASTSWYRKKSGSTREETISKGGRYVETVNSGSKSFSLRINDLTVEDSGTYRCNVYAFLEIQPNIYHEFDVYGDGTAVTVNA
notes: as for B10

Experiments:
[1] = target: T1, ectodomain of human CD98hc; assay: ELISA, purified VNAR-Fc titrated on coated CD98hc
[2] = target: T1, ectodomain of human CD98hc; assay: ELISA, expression medium of VNAR-hFc on coated protein
[3] = target: T1, ectodomain of human CD98hc; assay: ELISA, VNAR-hFc titrated on coated human CD98hc

Binder | EC50 [1] [nM] | Binding [relative units] [2] [relative units] | EC50 [3] [nM]
B1 | 3 | 3.76 | 
B2 |  |  | 40
B3 |  |  | 10
B4 | 12 | 3.99 | 
B5 |  |  | 10
B6 |  |  | 30
B7 |  |  | 20
B8 |  |  | 30
B9 |  |  | 10
B10 | 56 | 2.19 | 
B11 | 6 | 3.93 | 
B12 | 107 | 1.48 | 
B13 | 28 | 3.5 | 
B14 | 6 | 3.31 | 
